The results in this text go back to article PMC9086285, “Catalytic Features and Thermal Adaptation Mechanisms of a Deep Sea Bacterial Cutinase-Type Poly(Ethylene Terephthalate) Hydrolase” (Frontiers in Bioengineering and Biotechnology, 2022).

Substrate in data set [1]: CCCCCC(=O)Oc1ccc([N+](=O)[O-])cc1
Put plainly: purified protein. The data set is classed as biochemical, Marinactinospora thermotolerans. As to conditions: 30°C, 20 mM Tris-HCl pH 8.0.

Substrate in data set [2]: CCCCCCCCCCCCCC(=O)Oc1ccc([N+](=O)[O-])cc1
Kind of data set: purified protein. The class given is biochemical, Marinactinospora thermotolerans. The note with it: 30°C, 20 mM Tris-HCl pH 8.0.

Substrate in data set [3]: CCCCCCCCCCCC(=O)Oc1ccc([N+](=O)[O-])cc1
Kind of data set: purified protein. As to conditions: 30°C, 20 mM Tris-HCl pH 8.0. The class given is biochemical, Marinactinospora thermotolerans.

Substrate in data set [4]: CCCCCCCCCCCCCCCC(=O)Oc1ccc([N+](=O)[O-])cc1
Kind of data set: purified protein. The class given is biochemical, Marinactinospora thermotolerans. The note with it: 30°C, 20 mM Tris-HCl pH 8.0.

Substrate in data set [5]: CCCCCCCCCC(=O)Oc1ccc([N+](=O)[O-])cc1
Put plainly: purified protein. The data set is classed as biochemical, Marinactinospora thermotolerans. As to conditions: 30°C, 20 mM Tris-HCl pH 8.0.

Substrate in data set [6]: CC(=O)Oc1ccc([N+](=O)[O-])cc1
Put plainly: purified protein. The data set is classed as biochemical, Marinactinospora thermotolerans. As to conditions: 30°C, 20 mM Tris-HCl pH 8.0.

Substrate in data set [7]: CCCCCCCC(=O)Oc1ccc([N+](=O)[O-])cc1
Kind of data set: purified protein. The data set is classed as biochemical, Marinactinospora thermotolerans. The note with it: 30°C, 20 mM Tris-HCl pH 8.0.

Substrate in data set [8]: CCCCCCCCCCCCCCCCCC(=O)Oc1ccc([N+](=O)[O-])cc1
Kind of data set: purified protein. The data set is classed as biochemical, Marinactinospora thermotolerans. The note with it: 30°C, 20 mM Tris-HCl pH 8.0.

Substrate in data set [9]: CCCC(=O)Oc1ccc([N+](=O)[O-])cc1
Kind of data set: purified protein. The class given is biochemical, Marinactinospora thermotolerans. The note with it: 30°C, 20 mM Tris-HCl pH 8.0.

Substrate in data set [10]: O=C(OCCO)c1ccc(C(=O)OCCO)cc1
Kind of data set: HPLC substrate reduction, Michaelis-Menten fit. The class given is biochemical, Marinactinospora thermotolerans. The note with it: 40°C, 20 mM Tris-HCl pH 8.0. The source says: (§1) HPLC substrate reduction, Michaelis-Menten fit on MtCut

Substrate in data set [11]: O=C(O)c1ccc(C(=O)OCCO)cc1
Put plainly: HPLC substrate reduction, Michaelis-Menten fit. The class given is biochemical, Marinactinospora thermotolerans. As to conditions: 40°C, 20 mM Tris-HCl pH 8.0.
Source text: as §1

Substrate in data set [12]: O=C(OCCO)c1ccc(C(=O)OCCO)cc1
Kind of data set: HPLC substrate reduction, Michaelis-Menten fit. The data set is classed as biochemical, unidentified prokaryotic organism. As to conditions: 40°C, 20 mM Tris-HCl pH 8.0. The source says: (§2) HPLC substrate reduction, Michaelis-Menten fit on ICCG

Substrate in data set [13]: O=C(O)c1ccc(C(=O)OCCO)cc1
Put plainly: HPLC substrate reduction, Michaelis-Menten fit. As to conditions: 40°C, 20 mM Tris-HCl pH 8.0. The class given is biochemical, unidentified prokaryotic organism.
Source text: as §2

Substrate in data set [14]: O=C(OCCO)c1ccc(C(=O)OCCO)cc1
Kind of data set: HPLC substrate reduction, Michaelis-Menten fit. The class given is biochemical, Pseudideonella sakaiensis. The note with it: 40°C, 20 mM Tris-HCl pH 8.0. The source says: (§3) HPLC substrate reduction, Michaelis-Menten fit on IsPETase

Substrate in data set [15]: O=C(O)c1ccc(C(=O)OCCO)cc1
Put plainly: HPLC substrate reduction, Michaelis-Menten fit. The data set is classed as biochemical, Pseudideonella sakaiensis. As to conditions: 40°C, 20 mM Tris-HCl pH 8.0.
Source text: as §3

B1: MtCut (Marinactinospora thermotolerans DSM 45154) (protein)
chain: NPYERGPAPTESSVTAVRGYFDTDTDTVSSLVSGFGGGTIYYPTDTSEGTFGGVVIAPGYTASQSSMAWMGHRIASQGFVVFTIDTITRYDQPDSRGRQIEAALDYLVEDSDVADRVDGNRLAVMGHSMGGGGTLAAAENRPELRAAIPLTPWHLQKNWSDVEVPTMIIGAENDTVASVRTHSIPFYESLDEDLERAYLELDGASHFAPNISNTVIAKYSISWLKRFVDEDERYEQFLCPPPDTGLFSDFSDYRDSCPHTT
notes: 786 bp fragment, signal peptide removed, C-terminal His6 (pET22b(+), NdeI/XhoI), E. coli BL21(DE3), 34 kDa
Regarding B1, the Km in the data set “purified protein [1]” is 4610 ± 1040 µM; in the data set “purified protein [2]”, 190 ± 40 µM; in “purified protein [3]”, 1680 ± 120 µM; in “purified protein [4]”, 150 ± 10 µM; in “purified protein [5]”, 4930 ± 530 µM; in “purified protein [6]”, 550 ± 40 µM. Also, the Michaelis-Menten constant (Km) in the data set “purified protein [7]” came to 2550 ± 280 µM; in “purified protein [8]”, 450 ± 20 µM; in the data set “purified protein [9]”, 1330 ± 150 µM; in data set [10] it was 3070 ± 930 µM; in data set [11] it was 750 ± 110 µM. Moreover, the kcat in “purified protein [1]” is 41.7 ± 6.35 s⁻¹; in “purified protein [2]”, 9.87 ± 1.52 s⁻¹; in the data set “purified protein [3]”, 30.5 ± 3.63 s⁻¹; in the data set “purified protein [4]” it was 4.79 ± 0.12 s⁻¹; in “purified protein [5]” it was 69.8 ± 5.15 s⁻¹; in the data set “purified protein [6]” it was 4.47 ± 0.28 s⁻¹. Also, the kcat in “purified protein [7]” is 79.4 ± 8.75 s⁻¹; in “purified protein [8]”, 14.3 ± 0.58 s⁻¹; in the data set “purified protein [9]” it was 14.1 ± 1.51 s⁻¹; in data set [10], 4.27 ± 1.15 s⁻¹; in data set [11], 0.13 ± 0.01 s⁻¹. Further, the kcat/Km came out at 9230 ± 900 M⁻¹ s⁻¹ in the data set “purified protein [1]”; 51400 ± 2900 M⁻¹ s⁻¹ in “purified protein [2]”; 18100 ± 1200 M⁻¹ s⁻¹ in the data set “purified protein [3]”; 32500 ± 1000 M⁻¹ s⁻¹ in “purified protein [4]”; 14200 ± 500 M⁻¹ s⁻¹ in “purified protein [5]”; 8190 ± 340 M⁻¹ s⁻¹ in “purified protein [6]”. For the same protein, the specificity constant (kcat/Km) in the data set “purified protein [7]” is 31100 ± 50 M⁻¹ s⁻¹; in the data set “purified protein [8]” it was 31800 ± 200 M⁻¹ s⁻¹; in the data set “purified protein [9]”, 10600 ± 100 M⁻¹ s⁻¹; in data set [10] it was 1410 ± 70 M⁻¹ s⁻¹; in data set [11], 176 ± 14 M⁻¹ s⁻¹.

B2: ICCG (unidentified prokaryotic organism; D238C/F243I/S283C/Y127G) (protein)
chain: SNPYQRGPNPTRSALTADGPFSVATYTVSRLSVSGFGGGVIYYPTGTSLTFGGIAMSPGYTADASSLAWLGRRLASHGFVVLVINTNSRFDGPDSRASQLSAALNYLRTSSPSAVRARLDANRLAVAGHSMGGGGTLRIAEQNPSLKAAVPLTPWHTDKTFNTSVPVLIVGAEADTVAPVSQHAIPFYQNLPSTTPKVYVELCNASHIAPNSNNAAISVYTISWMKLWVDNDTRYRQFLCNVNDPALCDFRTNNRHCQ
notes: quadruple variant of LCC; only D238C/S283C given, the other two changes (F243I, Y127G) known from Tournier et al. 2020; expression construct not described; PDB 6THT given as the ICCG structure used for modelling
On to B2, for which, in data set [12], the Km came to 2580 ± 980 µM, the catalytic constant (kcat) was determined as 2.29 ± 0.95 s⁻¹ and the kcat/Km was determined as 1000 ± 170 M⁻¹ s⁻¹. Also, in [13], the Michaelis-Menten constant (Km) was found to be 430 ± 20 µM, the turnover number (kcat) is 0.0032 ± 0.0001 s⁻¹ and the kcat/Km worked out at 6.75 ± 0.32 M⁻¹ s⁻¹.

B3: IsPETase (Pseudideonella sakaiensis) (protein)
chain: QTNPYARGPNPTAASLEASAGPFTVRSFTVSRPSGYGAGTVYYPTNAGGTVGAIAIVPGYTARQSSIKWWGPRLASHGFVVITIDTNSTLDQPSSRSSQQMAALRQVASLNGTSSSPIYGKVDTARMGVMGWSMGGGGSLISAANNPSLKAAAPQAPWDSSTNFSSVTVPTLIFACENDSIAPVNSSALPIYDSMSRNAKQFLEINGGSHSCANSGNSNQALIGKKGVAWMKRFMDNDTRYSTFACENPNSTRVSDFRTANCS
notes: purified enzyme; expression construct not described
For B3, in data set [14], the Km amounted to 4480 ± 540 µM, the kcat turned out to be 5.95 ± 0.62 s⁻¹ and the kcat/Km turned out to be 1330 ± 20 M⁻¹ s⁻¹. For the same protein, in data set [15], the Km is 720 ± 20 µM, the turnover number (kcat) came to 0.0139 ± 0.0006 s⁻¹ and the kcat/Km came to 19.2 ± 0.45 M⁻¹ s⁻¹.
